Among the data in PMC2606027 (2009) are percent of parent values, retold here.

B1: LEDGF IBD fused to Gal4 transcription activation domain (WT prey) [human] / Full-length HIV-1 IN fused to the DNA binding domain of Gal4 (WT bait) [HIV-1] (parent complex)
chain 1: SMDSRLQRIHAEIKNSLKIDNLDVNRCIEALDELASLQVTMQQAQKHTEMITTLKKIRRFKVSQVIMEKSTMLYNKFKNMFLV
chain 2: not shown

The variants in the first experiment derive from B1. Description: yeast two-hybrid (β-galactosidase reporter); S. cerevisiae Y187; quadruplicate measurements.
As for chain 1 K14E, the percent of parent is 139 % of WT/WT. With chain 1 K46E, the percent of parent is 129 % of WT/WT.

Variants of B1 are the subject of the next experiment. Put plainly: yeast two-hybrid (β-galactosidase reporter); S. cerevisiae Y187; quadruplicate measurements; read off a plot.
With chain 1 D20N, the percent of parent is ~1.2 % of WT/WT.

Consider chain 1 K55E, chain 1 K56S, chain 1 R59E, for which the percent of parent was ~1.3 % of WT/WT. Take chain 1 K55E, chain 1 K56E, chain 1 R59E: the percent of parent was ~1.4 % of WT/WT.
